Test results as given in patent US20230203162A1 (NUMAB THERAPEUTICS, published 2023).

Key:
[1] = molecular target: T1, plasma-membranous human MSLN on cell lines (H226, HPAC, H292, OVCAR-3, MeT-5A) (human, UniProt Q13421 296-598); assay: cELISA on H226 cells, HRP-Protein L
T1 construct: whole, on cells; also called human MSLN on H226 cells; mesothelin on target cells

[2] = molecular target: T2, recombinant human MSLN (purchased from Peprotech) (human, UniProt Q13421 296-598, limits assumed); assay: SPR, MSLN immobilized on CM5, scFv as analyte, 1:1 Langmuir
T2 construct: Bought protein; also called recombinant human mesothelin

[3] = molecular target: T3, cynomolgus monkey MSLN on recombinant CHO cell line (cynomolgus monkey); assay: cELISA on CHO cells expressing cynomolgus monkey MSLN, HRP-Protein L
T3 construct: whole, on cells; also called plasma-membranous cynomolgus monkey MSLN

[4] = molecular target: T4, recombinant cynomolgus monkey MSLN (purchased from Sino Biological) (cynomolgus monkey); assay: SPR, cynomolgus MSLN immobilized on CM5, scFv as analyte, 1:1 Langmuir
T4 construct: Bought protein

[5] = molecular target: biotinylated MSLN (human MSLN in the MSLN/MUC16 competition ELISA) (human, UniProt Q13421 296-598, limits assumed, biotinylated); assay: competition ELISA, scFv titrated with biotinylated MSLN; competitor coated MUC16
[6] = molecular target: T1, plasma-membranous human MSLN on cell …; assay: cell-based or functional assay
[7] = molecular target: soluble mesothelin (sMSLN); assay: cell-based or functional assay
[8] = molecular target: T5, human recombinant CD3ε protein (Sino Biological) (human, UniProt P07766 23-126); assay: SPR, CD3ε amine-coupled to CM5, antibody injected
T5 construct: Bought protein; also called recombinant human CD3ε; human CD3ε

[9] = molecular target: T1, plasma-membranous human MSLN on cell …; assay: flow cytometry on H226 cells, protein L-PE, 4PL fit
[10] = molecular target: T1, plasma-membranous human MSLN on cell …; assay: flow cytometry on Met-5A cells, protein L-PE, 4PL fit
[11] = molecular target: T1, plasma-membranous human MSLN on cell …; assay: flow cytometry on OVCAR-3 cells, protein L-PE, 4PL fit
[12] = molecular target: human serum albumin (hSA, Sigma-Aldrich A3782) (human, UniProt P02768 25-609); assay: SPR, hSA amine-coupled to CM5, antibody injected, pH 5.5, 1:1 Langmuir
[13] = molecular target: T2, recombinant human MSLN (purchased from …); assay: SPR (Biacore T200), human MSLN; which of the two formats (MSLN immobilized / antibody captured) not given

| EC50 [1] [nM] | rel. EC50 (EC50, Amatuximab/EC50, scFv) [1] [ratio] | rel. Maximum binding (OD450-690 nm, scFv/OD450-690 nm, Amatuximab) [1] [ratio] | Kd [2] [nM] | koff [2] [s⁻¹] | kon [2] [M⁻¹ s⁻¹] | EC50 [3] [nM] | rel. EC50 (EC50, Amatuximab/EC50, scFv) [3] [ratio] | rel. Maximum binding (OD450-690 nm, scFv/OD450-690 nm, Amatuximab) [3] [ratio] | Kd [4] [nM] | koff [4] [s⁻¹] | kon [4] [M⁻¹ s⁻¹] | IC50 [5] [nM] | Maximum inhibition at highest sample conc. [5] [%] | rel. IC50 (IC50, Amatuximab/IC50, scFv) [5] [ratio] | Binder | further results |
| --- | --- | --- | --- | --- | --- | --- | --- | --- | --- | --- | --- | --- | --- | --- | --- | --- |
| 1.44 | 0.16 | 0.57 | 2.91 | 0.00227 | 780000 | 12 | 0.03 | 0.89 | 30.6 | 0.0527 | 1.72e+06 | 0.5 | 99.2 | 0.03 | anti-MSLN scFv PRO1783 (scFv, also called 54-01-G02-sc01) scFv: DIQMTQSPSSLSASVGDRVTITCQASQNIYSNLAWYQQKPGKAPKLLIYDASDLASGVPSRFSGSGSGTDFTLTISSLQPEDFATYYCQQVRSSSDIDNPFGTGTKVTVLGGGGGSGGGGSGGGGSGGGGSQVQLVESGGGLVQPGGSLRLSCAASGFSLSSYAMGWVRQAPGKGLEWIGYISTINNTYYASWAKGRFTISRDNSKNTVYLQMNSLRAEDTAVYYCAREIRSGWVDYGFSIWGQGTLVTVSS | – |
| – | – | – | – | – | – | – | – | – | – | – | – | – | – | – | PRO2566 (MATCH4) (other, Heterodimer) chain 1: AFELTQSPSSLSASVGDRVTITCQASESINSRLAWYQQKPGQPPKLLIYDASDLTSGVPSRFSGSGSGTDFTLTISSLQPEDFATYYCQGYGGSSTTTFGTGTKLTVLGGGGGSGGGGSGGGGSGGGGSEVQLVESGGGLVQPGGSLRLSCAASGFSLSSYAMNWVRQAPGKGLEWIGHINAGDIAYYATWAKGRFTISRDNSKNTVYLQMNSLRAEDTAVYFCARGAGGFSTGPFKLWGQGTLVTVSSGGGGSGGGGSEVQLVESGGGLVQPGGSLRLSCAASGFSLSSYDMSWVRQAPGKGLAWIGASYASGPTYYASWAKGRFTISRDNSKNTVYLQMNSLRAEDTATYFCARGGWTGTSHSNIWGQGTLVTVSSGGGSGGGSGGGSGQSQLVESGGGLVQPGGSLRLSCAVSGFSLSSYAMGWVRQAPGKCLEYIGYISKIGTTYYASWAKGRFTISKDNSKNTVYLQMNSLRAEDTAVYFCARGSSSGGYLDDGFDPWGQGTLVTVSS chain 2: ALQMTQSPSSLSARVGDRVTIKCQASQSISNYLAWYQQKPGKPPKFLIYDASDLASGVPSRFSGSGSGRDFTLTISSLQPEDFATYYCQQVYDSNNVENVFGCGTKVTVLGGGGGSGGGGSGGGGSGGGGSQSQLVESGGGLVQPGGSLRLSCAVSGFSLSSYAMGWVRQAPGKCLEYIGYISKIGTTYYASWAKGRFTISKDNSKNTVYLQMNSLRAEDTAVYFCARGSSSGGYLDDGFDPWGQGTLVTVSSGGGGSGGGGSALQMTQSPSSLSARVGDRVTIKCQASQSISNYLAWYQQKPGKPPKFLIYDASDLASGVPSRFSGSGSGRDFTLTISSLQPEDFATYYCQQVYDSNNVENVFGCGTKVTVLGGGSGGSGGSGGSGDIQMTQSPSSLSASVGDRVTITCQSSQSVFSNNYLAWFQQKPGQSPKRLIYSASTLASGVPSRFSGSGSGTDFTLTISSLQPEDFATYYCLGSYACSSADCYVFGTGTKVTVLG | Fold-diff Window (mean Met-5A EC50 / mean H226 EC50) [6]: 436 fold; average mean H226 EC50, cell killing (LDH release) [6]: 0.00609 nM; average mean Met-5A EC50, cell killing (LDH release) [6]: 2.66 nM; Delta 0-50 ng/mL sMSLN (x-fold change in H226 killing potency) [7]: 3.1 fold; Delta 0-500 ng/mL sMSLN (x-fold change in H226 killing potency) [7]: 14.2 fold; Kd [8]: 2.97 nM; EC50 [9]: 0.564 nM; max. binding (MFI) [9]: 757000 MFI; EC50 [10]: 0.106 nM; max. binding (MFI) [10]: 12100 MFI; EC50 [11]: 5.13 nM; max. binding (MFI) [11]: 154000 MFI; Kd [12]: 6.89 nM; koff [12]: 0.00399 s⁻¹; kon [12]: 579000 M⁻¹ s⁻¹; Kd [13]: 1.52 nM; koff [13]: 0.000608 s⁻¹; kon [13]: 400000 M⁻¹ s⁻¹ |
| 0.25 | 0.98 | 0.71 | 0.321 | 0.000183 | 568000 | 0.76 | 0.7 | 0.81 | 1.08 | 0.0011 | 1.02e+06 | 0.02 | 99 | 0.87 | reference anti-MSLN scFv PRO1795 (scFv, also called 54-22-H03-sc01) scFv: DIQMTQSPSSLSASVGDRVTITCQASESIGNYLAWYQQKPGKAPKLLIYSASTLASGVPSRFSGSGSGTDFTLTISSLQPEDFATYYCQSTDYGDSYIFGTGTKVTVLGGGGGSGGGGSGGGGSGGGGSEVQLVESGGGLVQPGGSLRLSCAASGISVSNDYYMCWVRQAPGKGLEWIGCISTYIGNTHYASWAKGRFTISRDNSKNTVYLQMNSLRAEDTAVYYCAKNAGYPGYRYAIDLWGQGTLVTVSS | – |
